Experimental data taken from publication PMC7960600, “A DARPin targeting activated Mac-1 is a novel diagnostic tool and potential anti-inflammatory agent in myocarditis, sepsis and myocardial infarction” (Basic Research in Cardiology, 2021).

Target: T1, human ICAM-1 (R&D Systems) (human, UniProt P05362 28-480)
T1 construct: ICAM-1, human, recombinant, bought; No catalogue number printed; also called recombinant human ICAM-1; source: bought: R&D Systems
Experiment: ELISA; 96-well Maxisorb plates coated with 0.1 µM human or mouse ICAM-1 (or BSA, 30 µM); recombinant human or mouse αM I-domain added; anti-His-HRP, OD 450 nm
Settings: both partners purified

T1 sequence (P05362 28-480): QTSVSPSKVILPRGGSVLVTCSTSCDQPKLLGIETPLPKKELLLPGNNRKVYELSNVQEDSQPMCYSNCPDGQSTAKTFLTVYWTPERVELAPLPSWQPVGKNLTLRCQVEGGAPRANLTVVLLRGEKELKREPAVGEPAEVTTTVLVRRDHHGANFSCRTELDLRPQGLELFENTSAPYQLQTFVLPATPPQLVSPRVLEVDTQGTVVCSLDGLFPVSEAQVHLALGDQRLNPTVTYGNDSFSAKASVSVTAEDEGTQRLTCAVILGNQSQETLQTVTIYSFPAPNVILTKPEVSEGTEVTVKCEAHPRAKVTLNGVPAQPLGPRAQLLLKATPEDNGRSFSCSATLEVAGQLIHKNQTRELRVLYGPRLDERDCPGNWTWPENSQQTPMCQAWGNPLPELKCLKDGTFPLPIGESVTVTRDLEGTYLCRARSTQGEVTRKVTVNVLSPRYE

B1: recombinant human αM I-domain (wild type) (domain or fragment)
chain: RQQPQKFPEALRGCPQEDSDIAFLIDGSGSIIPHDFRRMKEFVSTVMEQLKKSKTLFSLMQYSEEFRIHFTFKEFQNNPNPRSLVKPITQLLGRTHTATGIRKVVRELFNITNGARKNAFKILVVITDGEKFGDPLGYEDVIPEADREGVIRYVIGVGDAFRSEKSRQELNTIASKPPRDHVFQVNNFEALKTIQNQLREKIFAIEGTQTGSSSSFEHEMSQEGFSAAALEHHHHHH
notes: I-domain of the αM chain (CD11b) of human Mac-1; no start methionine or leader is printed; source: E. coli BL21 DE3 (vector pET-20b(+)), purified (Ni beads, dialysed against PBS); not shown: His6, C-terminal, kept
  binding result: binds
